Measurements taken from US20220160843A1 (priority 2019, published 2022).

B1: GN3: Native lysin, WP_012273008.1/Lysozyme, SEQ ID NO: 2 (protein, listed as Pseudomonas putida)
chain: MRTSQRGLSLIKSFEGLRLQAYQDSVGVWTIGYGTTRGVKAGMKISKDQAERMLLNDVQRFEPEVERLIKVPLNQDQWDALMSFTYNLGAANLESSTLRRLLNAGNYAAAAEQFPRWNKAGGQVLAGLTRRRAAERELFLGAA
B2: GN17: Native lysin, GenBank ACD38663.1, SEQ ID NO: 24 (protein, listed as Pseudomonas aeruginosa)
chain: MTLRYGDRSQEVRQLQRRLNTWAGANLYEDGHFGAATEDAVRAFQRSHGLVADGIAGPKTLAALGGADCSHLLQNADLVAAATRLGLPLATIYAVNQVESNGQGFLGNGKPAILFERHIMYRRLAAHDQVTADQLAAQFPALVNPRPGGYAGGTAEHQRLANARQIDDTAALESASWGAFQIMGFHWQRLGYISVQAFAEAMGRSESAQFEAFVRFIDTDPALHKALKARKWADFARLYNGPDYKRNLYDNKLARAYEQHANCAEASA
B3: GN108: Native lysin, GenBank YP_009288673.1, SEQ ID NO: 26 (protein)
chain: MILTKDGFSIIRNELFEGKLDQTQVDAINFIVEKATEYGLTYPEAAYLLATIYHETGLPSGYRTMQPIKEAGSDSYLRSKKYYPYIGYGYVQLTWEENYERIGKLIGIDLVKNPEKALEPLIAIQIAIKGMLNGWFTGVGFRRKRPVSKYNKQQYVAARNIINGKDKAELIAKYAIIFERALRSL
modifications: Acinetobacter phage phiAB6
B4: GN9: Native lysin, GenBank ECJ78460.1, SEQ ID NO: 21 (protein)
chain: MKNFNEIIEHVLKHEGGYVNDPKDLGGETKYGITKRFYPDLDIKNLTIEQATEIYKKDYWDKNKVESLPQNLWHIYFDMCVNMGKRTAVKVLQRAAVNRGRDIEVDGGLGPATIGALKGVELDRVRAFRVKYYVDLITARPEQEKFYLGWFRRATEV
modifications: Marine metagenome
B5: GN10: Native lysin, GenBank YP_002600773.1, SEQ ID NO: 22 (protein)
chain: MSKQGGVKVAQAVAALSSPGLKIDGIVGKATRAAVSSMPSSQKAATDKILQSAGIGSLDSLLAEPAAATSDTFREVVLAVAREARKRGLNPAFYVAHIALETGWGRSVPKLPDGRSSYNYAGLKYAAVKTQVKGKTETNTLEYIKSLPKTVRDSFAVFASAGDFSRVYFWYLLDSPSAYRYPGLKNAKTAQEFGDILQKGGYATDPAYAAKVASIASTAVARYGSDVSSVA
modifications: Pseudomonas phage phi2954
B6: GN13: Native lysin, GenBank YP_00638255.1, SEQ ID NO: 23 (protein)
chain: MSDKRVEITGNVSGFFESGGRGVKTVSTGKGDNGGVSYGKHQLASNNGSMALFLESPFGAPYRAQFAGLKPGTAAFTSVYNKIANETPTAFERDQFQYIAASHYDPQAAKLKAEGINVDDRHVAVRECVFSVAVQYGRNTSIIIKALGSNFRGSDKDFIEKVQDYRGATVNTYFKSSSQQTRDSVKNRSQQEKQMLLKLLNS
modifications: Pseudomonas phage Lu11
B7: GN105: Native lysin, GenBank WP_016046696.1, SEQ ID NO: 25 (protein, listed as Pseudomonas aeruginosa)
chain: MAVVSEKTAGGRNVLAFLDMLAWSEGTSTIRGSDNGYNVVVGGGLFNGYADHPRLKVYLPRYKVYSTAAGRYQLLSRYWDAYRESLALKGGFTPSNQDLVALQQIKERRSLADIQAGRLADAVQKCSNIWASLPGAGYGQREHSLDDLTAHYLAAGGVLS

What was measured:
P. aeruginosa [1] = assay: Time-kill assay of GN lysin activity; assay type: cell-based, Pseudomonas aeruginosa; settings: for bactericidal activity in the time-kill assay format: 3-hour timepoint, 10 μg/mL, in either CAA/HuS or HEPES buffer; for Log10 CFU/mL T = 3 hr / Log10 CFU/mL T = l hr: lysin 10 μg/mL, T = 0 7.8; for Log10 CFU/mL T = 3 hr: buffer control 7.2, limit of detection 3.7; for Log10 CFU/mL T = l hr: buffer control 7.7
Protocol: All treatments were incubated at 37° C. with aeration.

human erythrocytes = assay type: cell-based
Protocol: The hemolytic activity of the GN lysins was measured as the amount of hemoglobin released by the lysis of human erythrocytes (30). Briefly, 3 ml of fresh human blood cells (hRBCs) obtained from pooled healthy donors (BioreclamationIVT) in a polycarbonate tube containing heparin was centrifuged at 1,000×g for 5 min at 4° C. The erythrocytes obtained were washed three times with phosphate-buffered saline (PBS) solution (pH 7.2) and resuspended in […]. […] Intact erythrocytes were pelleted by centrifugation at 1,000×g for 5 min at 4° C., and the supernatant was transferred to a new 96-well plate. The release of hemoglobin was monitored by measuring the absorbance at 570 nm.

P. aeruginosa [2] = assay: Minimal inhibitory concentration (MIC), modified CLSI broth microdilution in CAA or CAA/HuS; assay type: cell-based, Pseudomonas aeruginosa; settings: for MIC (μg/mL) in CAA: CAA media
[3] = system: P. aeruginosa strain ATCC 17647; assay: Minimal Biofilm Eradicating Concentration (MBEC), Calgary Biofilm Device; assay type: cell-based, Pseudomonas aeruginosa; settings: 24 h biofilm, 24 h treatment; minimum concentration removing >95% of biofilm biomass (crystal violet)
From the text: All samples were examined in triplicate.

[4] = system: carbapenem-resistant clinical strain, WC-452; assay: Checkerboard assay to examine synergy with antibiotics in CAA/HuS; assay type: cell-based, P. aeruginosa
Protocol: Fractional inhibitor concentration index (FICI) values were determined for all combinations; values of <0.5 indicate synergy.
The checkerboard assays is based on a modification of the CLSI method for MIC determination by broth microdilution (26, 29). Checkerboards were constructed by first preparing columns of a 96-well polypropylene microtiter plate, in which each well had the same amount of antibiotic diluted 2-fold along the horizontal axis. […] Summation fractional inhibitory concentrations (ΣFICs) were calculated for each drug and the minimum ΣFIC value (ΣFICmin) was used to determine synergy. ΣFICs were calculated as follows: ΣFIC=FIC A+FIC B, where FIC A is the MIC of each antibiotic in the combination/MIC of each antibiotic alone, and FIC B is the MIC of each GN lysin in the combination/MIC of each GN lysin alone. The combination is considered synergistic when the ΣFIC is ≤0.5, strongly additive when the ΣFIC is >0.5 to <1, additive with the ΣFIC is 1−<2, and antagonistic when the ΣFIC is ≥2.

[5] = CAA/HuS, ‡ indicates bactericidal activity
[6] = HEPES buffer, ‡ indicates bactericidal activity
[7] = CAA supplemented with 25% human serum

Molecule | bactericidal activity in the time-kill assay format (P. aeruginosa [1]) | Log10 CFU/mL T = 3 hr (P. aeruginosa [1]; [5]) | Log10 CFU/mL T = l hr (P. aeruginosa [1]; CAA/HuS) [Log10 CFU/mL] | Log10 CFU/mL T = 3 hr (P. aeruginosa [1]; [6]) | Log10 CFU/mL T = l hr (P. aeruginosa [1]; [6]) | hemolytic activity (human erythrocytes) | MIC (μg/mL) in CAA (P. aeruginosa [2]) [µg/mL] | MIC (μg/mL in CAA/HuS) (P. aeruginosa [2]; [7]) [µg/mL] | MBEC [3] [µg/mL] | further results
B1 | bactericidal activity | <3.7‡ Log10 CFU/mL | 5.8 | <3.7‡ Log10 CFU/mL | <3.7‡ Log10 CFU/mL | no hemolytic activity whatsoever | 16 | 16 | 0.25 | MIC value in CAA/HuS (P. aeruginosa [2]; [7]): 16 µg/mL
B2 | bactericidal activity | 4.2‡ Log10 CFU/mL | 6.4 | <3.7‡ Log10 CFU/mL | 5.4 Log10 CFU/mL | no hemolytic activity whatsoever | 32 | 16 | 0.125 | 
B3 | bactericidal activity | <3.7‡ Log10 CFU/mL | 5.7 | <3.7‡ Log10 CFU/mL | 6.4 Log10 CFU/mL | no hemolytic activity whatsoever | 8 | 8 | 0.125 | synergy with antibiotics in the checkerboard assay [4]: synergize with a range of antibiotics; FICI, Amikacin ([4]; lysin + amikacin): 0.156; FICI, Azithromycin ([4]; lysin + azithromycin): 0.060; FICI, Aztreonam ([4]; lysin + aztreonam): 0.250; FICI, Ciprofloxacin ([4]; lysin + ciprofloxacin): 0.281; FICI, Colistin ([4]; lysin + colistin): 0.133; FICI, Fosfomycin ([4]; lysin + fosfomycin): 0.188; FICI, Gentamicin ([4]; lysin + gentamicin): 0.188; FICI, Imipenem ([4]; lysin + imipenem): 0.039; FICI, Meropenem ([4]; lysin + meropenem): 0.250; FICI, Piperacillin ([4]; lysin + piperacillin): 0.531; FICI, Rifampicin ([4]; lysin + rifampicin): 0.125; FICI, Tobramycin ([4]; lysin + tobramycin): 0.188
B4 |  | 7.3 Log10 CFU/mL | 6.8 | 5.7 Log10 CFU/mL | 6.7 Log10 CFU/mL | no hemolytic activity whatsoever | 8 | 2 | 0.125 | 
B5 |  | 7.4 Log10 CFU/mL | 7.4 | <3.7‡ Log10 CFU/mL | 5.7 Log10 CFU/mL | no hemolytic activity whatsoever | 8 | 16 | 0.5 | 
B6 |  |  |  |  |  | no hemolytic activity whatsoever | 8 | >128 | 0.125 | 
B7 |  | 6.3 Log10 CFU/mL | 7.0 | <3.7 Log10 CFU/mL | 6.6 Log10 CFU/mL | no hemolytic activity whatsoever | >128 | 32 | 4 | 
